This assay addresses Ubiquitin (wild-type), 15N isotopically labelled (UniProt P0CG47 1-76). Briefly: NMR titration.

B1: stapled Cys-Ubq3-Cys peptide (stapled xenonucleus) (peptide)
peptide: CMQIFVKTLTGKTITLEVC
modifications: disulphide bridge between the two terminal cysteines
B1: the binding result is “binds”.

For the origin of these results see publication doi:10.1101/2020.04.28.064113 (bioRxiv, 2020).
